Laboratory results: PMC7517352 (Frontiers in Microbiology, 2020)

Molecular target: T1, VapC21 toxin (Rv2757c) of the VapBC21 complex co-expressed from pET-Duet (M. tuberculosis, UniProt P9WF91 1-138)
T1 construct: also called VapC21 (in VapBC21 complex); not shown: His6, N-terminal, kept
T1 sequence: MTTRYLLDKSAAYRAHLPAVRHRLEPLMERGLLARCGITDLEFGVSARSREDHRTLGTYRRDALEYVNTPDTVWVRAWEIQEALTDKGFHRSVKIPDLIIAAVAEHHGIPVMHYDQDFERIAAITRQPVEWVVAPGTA
Assay: SEC-MALS
Conditions: both partners purified

B1: VapB21 antitoxin (Rv2758c) of the VapBC21 complex co-expressed from pET-Duet (natural protein)
chain: MHRGYALVVCSPGVTRTMIDIDDDLLARAAKELGTTTKKDTVHAALRAALRASAARSLMNRMAENATGTQDEALVNAMWRDGHPENTA
notes: also called VapB21 (in VapBC21 complex)
  stoichiometry N: 1 antitoxin per toxin (4:4)
